# Experimental data taken from PMC7094413.
# Target: SARS-CoV nucleocapsid protein C-terminal domain (residues 248–365) (SARS-CoV TW1 strain)
# Experiment: NMR structure
substance,measurement,value
SARS-CoV nucleocapsid protein C-terminal domain (residues 248–365) (domain or fragment),stoichiometry N,2
